One experiment has as its target T1, Human IL-12 (human, UniProt P29460 23-328; P29459 23-219).
T1 construct: also called human Interleukin-12
T1 sequence (looked up) 1: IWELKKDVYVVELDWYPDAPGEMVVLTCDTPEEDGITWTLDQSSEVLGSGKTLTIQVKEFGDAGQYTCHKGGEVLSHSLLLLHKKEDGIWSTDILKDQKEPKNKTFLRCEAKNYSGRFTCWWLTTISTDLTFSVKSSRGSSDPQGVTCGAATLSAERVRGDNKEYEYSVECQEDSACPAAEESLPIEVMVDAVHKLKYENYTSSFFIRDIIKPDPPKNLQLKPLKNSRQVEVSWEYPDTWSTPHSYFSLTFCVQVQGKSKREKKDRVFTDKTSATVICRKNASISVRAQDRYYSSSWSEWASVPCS
T1 sequence (looked up) 2: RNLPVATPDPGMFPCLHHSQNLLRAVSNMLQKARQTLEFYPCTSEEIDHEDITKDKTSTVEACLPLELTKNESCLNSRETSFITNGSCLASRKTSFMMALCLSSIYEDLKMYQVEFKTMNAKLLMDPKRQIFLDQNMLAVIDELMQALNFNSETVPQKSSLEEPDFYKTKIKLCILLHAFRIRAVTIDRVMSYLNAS
In words: SPR, BIACORE T200, 37 degrees C, pH 7.4; antibody captured by anti-human Fc antibody, human IL-12 injected at 5 and 20 nM; 1:1 binding model. On the procedure: The affinity of anti-IL12 antibodies binding to human IL-12 at pH 7.4 was determined at 37 degrees C. using BIACORE® T200 instrument (GE Healthcare). […] (GE Healthcare) was immobilized onto all flow cells of a CM4 sensor chip using amine coupling kit (GE Healthcare). All antibodies and analytes were prepared in ACES pH 7.4 containing 20 mM ACES, 150 mM NaCl, 0.05% Tween 20, 0.005% NaN₃. Each antibody was captured onto the sensor surface by anti-human Fc antibody. Antibody capture levels were aimed at 50 resonance unit (RU). Human IL-12 was injected at 5 and 20 nM, followed by dissociation. Sensor surface was regenerated each cycle with 3M MgCl₂.

Experiment [1] addresses T2, Human IL-12 receptor (human IL-12Rb1 and IL-12Rb2) (human, UniProt P42701 24-662; Q99665 24-862). Briefly: cell-based or functional assay.
The target of experiment [2] is T2, Human IL-12 receptor (human IL-12Rb1 …). In words: cell-based or functional assay. This is another data set of the same source.
The target is the same in experiment [3]. Briefly: cell-based or functional assay. The source holds these as a separate data set.

T2 sequence (Q99665 24-862, chain 2 of 2, other chains not shown): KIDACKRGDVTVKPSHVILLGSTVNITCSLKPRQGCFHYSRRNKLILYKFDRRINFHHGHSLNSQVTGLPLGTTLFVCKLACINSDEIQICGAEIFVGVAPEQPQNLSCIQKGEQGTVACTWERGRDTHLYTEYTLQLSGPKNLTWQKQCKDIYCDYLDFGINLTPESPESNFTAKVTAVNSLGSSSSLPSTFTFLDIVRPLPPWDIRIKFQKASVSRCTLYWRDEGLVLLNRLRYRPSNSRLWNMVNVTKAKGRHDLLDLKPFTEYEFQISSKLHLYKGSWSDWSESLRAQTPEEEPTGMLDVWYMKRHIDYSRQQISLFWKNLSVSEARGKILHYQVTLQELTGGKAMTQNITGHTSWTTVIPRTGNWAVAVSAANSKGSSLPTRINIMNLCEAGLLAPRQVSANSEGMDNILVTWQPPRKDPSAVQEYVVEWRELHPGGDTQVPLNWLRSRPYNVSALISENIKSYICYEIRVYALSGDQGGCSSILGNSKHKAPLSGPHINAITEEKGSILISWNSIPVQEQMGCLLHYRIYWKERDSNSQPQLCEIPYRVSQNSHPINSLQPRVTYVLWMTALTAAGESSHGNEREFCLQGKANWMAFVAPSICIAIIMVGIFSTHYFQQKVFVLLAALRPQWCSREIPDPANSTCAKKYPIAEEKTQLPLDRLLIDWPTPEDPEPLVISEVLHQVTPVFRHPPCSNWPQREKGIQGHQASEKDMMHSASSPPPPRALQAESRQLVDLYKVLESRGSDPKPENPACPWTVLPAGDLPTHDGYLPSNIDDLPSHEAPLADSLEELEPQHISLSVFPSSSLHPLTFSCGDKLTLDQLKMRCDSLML

B1: Anti-IL-12 antibody, Ab1, comprising VH release enhancing mutations (Ab101H89-12aa0054-C8/Ab102L69-SK1) (antibody, V domains shown)
VH: QVQLVQSGAEVKKPGSSVKVSCKASGGTFSDYYLHWSRQAPGQGLEWMGWIDPENGDTEYAPKFQGRVTITADESTSTAYMELSSLRSEDTAVYYCARNKELRYIDVWGQGTLVTVSS
VL: DIVMTQSPLSLPVTPGEPASISCRASQSISINLHWYQQKPGQAPRQLIAFASQSISGVPSRFSGSGSGTDFTLTISSLQPEDFATYYCQQSNSFPLTFGQGTKVEIKR
notes: Homodimer of a light and a heavy chain; Mutations V37S, F100aI / L46Q, Y49A; also called Ab101H89/Ab102L69
Turning to B1, the affinity in the experiment with Human IL-12, expressed as Kd, was 6.52 nM.

B2: Anti-IL-12 antibody Ab1, variable region variant Ab101H89/Ab102L994 (antibody, V domains shown)
VH: QVQLVQSGAEVKKPGSSVKVSCKASGGTFSDYYLHWSRQAPGQGLEWMGWIDPENGDTEYAPKFQGRVTITADESTSTAYMELSSLRSEDTAVYYCARNKELRYIDVWGQGTLVTVSS
VL: DIVMTQSPLSLPVTPGEPASISCRASQSISINLHWYQQKPGQAPRQLIAFASQSISGVPSRFSGSGSGTDFTLTISSLQPEDFATYYCQQSYSFPLTFGQGTKVEIKR
notes: Mutations V37S, F100aI / L46Q, Y49A, N92Y
Regarding B2, in the experiment with Human IL-12, the Kd worked out at 3.51 nM.

B3: Anti-IL-12 antibody Ab1, variable region variant Ab101H725/Ab102L1087 (antibody, V domains shown)
VH: QVQLVQSGAEVKKPGSSVKVSCKASGGTFSDYYLHWSRQAPGQGLEWMGWIDPENQDTEYAPKFQGRVTITADESTSTAYMELSSLRSEDTAVYYCARTKELRYIDVWGQGTLVTVSS
VL: DIVMTQSPLSLPVTPGEPASISCRSSDSISINLHWYQQKPGQAPRQLIAFASQSISGVPSRFSGSGSGTDFTLTISSLQPEDFATYYCQQSNSFPLTFGQGTKVEIKR
notes: Mutations V37S, G55Q, N95T, F100aI / A25S, Q27D, L46Q, Y49A
B3 showed a Kd with Human IL-12 of 1.27 nM.

B4: Anti-IL-12 antibody Ab1, variable region variant Ab101H/Ab102L (antibody, V domains shown)
VH: QVQLVQSGAEVKKPGSSVKVSCKASGGTFSDYYLHWVRQAPGQGLEWMGWIDPENGDTEYAPKFQGRVTITADESTSTAYMELSSLRSEDTAVYYCARNKELRYFDVWGQGTLVTVSS
VL: DIVMTQSPLSLPVTPGEPASISCRASQSISINLHWYQQKPGQAPRLLIYFASQSISGVPSRFSGSGSGTDFTLTISSLQPEDFATYYCQQSNSFPLTFGQGTKVEIKR
In the experiment with Human IL-12, B4 gave a Kd of 1.45 nM and a kon of 1.9e+06 M⁻¹ s⁻¹.

B5: hIL12_His tag (ligand)
chain 1: IWELKKDVYVVELDWYPDAPGEMVVLTCDTPEEDGITWTLDQSSEVLGSGKTLTIQVKEFGDAGQYTCHKGGEVLSHSLLLLHKKEDGIWSTDILKDQKEPKNKTFLRCEAKNYSGRFTCWWLTTISTDLTFSVKSSRGSSDPQGVTCGAATLSAERVRGDNKEYEYSVECQEDSACPAAEESLPIEVMVDAVHKLKYENYTSSFFIRDIIKPDPPKNLQLKPLKNSRQVEVSWEYPDTWSTPHSYFSLTFCVQVQGKSKREKKDRVFTDKTSATVICRKNASISVRAQDRYYSSSWSEWASVPCS
chain 2: RNLPVATPDPGMFPCLHHSQNLLRAVSNMLQKARQTLEFYPCTSEEIDHEDITKDKTSTVEACLPLELTKNESCLNSRETSFITNGSCLASRKTSFMMALCLSSIYEDLKMYQVEFKTMNAKLLMDPKRQIFLDQNMLAVIDELMQALNFNSETVPQKSSLEEPDFYKTKIKLCILLHAFRIRAVTIDRVMSYLNAS
B5: in experiment [1], the “EC50 (read off the curve), IL-12 luciferase reporter assay (+ MTSP1) [all three graphs]” value is ~0.2 nM and the “EC50 (read off the curve), IL-12 luciferase reporter assay (without protease) [all three graphs]” value is ~0.2 nM. In addition, the “EC50 (read off the curve), IL-12 luciferase reporter assay (without protease) [left graph]” value in experiment [2] was ~0.1 nM. Moreover, in experiment [3], the “EC50 (read off the curve), IL-12 luciferase reporter assay (+ MTSP1)” value is ~0.2 nM and the “EC50 (read off the curve), IL-12 luciferase reporter assay (without protease)” value was ~0.2 nM.

(Values after US20240270806A1 (Chugai, published 2024).)
